Positions count from the first letter of the chain named.
B1: Hu1B5-H3/Hu1B5-L1: humanized anti-A2aR IgG1 FES antibody; HCVR SEQ ID NO:54, LCVR SEQ ID NO:71 (antibody, V domains shown)
VH: EVQLVQSGAEVKKPGASVKVSCKTSGFTFTRFWMNWVRQAPGQGLEWIGRIDPYDSETQYNHKFWDRATLTVDTSSSTVYMELSSLRSEDTAVYYCGRSLYGKGDYWGQGTTVTVSS
VL: DVVMTQSPLSLPVTLGQPASISCRSSQSIVHSNGNTYLEWFQQRPGQSPRRLIYKVSNRFSGVPDRFSGSGSGTDFTLKISRVEAEDVGVYYCFQGSHVPLTFGGGTKVEIK
modifications: IgG1 FES constant regions
B2: Hu1B5-H4/Hu1B5-L1: humanized anti-A2aR IgG1 FES antibody; HCVR SEQ ID NO:55, LCVR SEQ ID NO:71 (antibody, V domains shown)
VH: B1 VH with T74K
VL: B1 VL
modifications: IgG1 FES constant regions
B3: Hu1B5-H2/Hu1B5-L1: humanized anti-A2aR IgG1 FES antibody; HCVR SEQ ID NO:52, LCVR SEQ ID NO:71 (antibody, V domains shown)
VH: B1 VH with I48M, A68V, L70M, S76T
VL: B1 VL
modifications: IgG1 FES constant regions
B4: Hu1B5-H6/Hu1B5-L1: humanized anti-A2aR IgG1 FES antibody; HCVR SEQ ID NO:57, LCVR SEQ ID NO:71 (antibody, V domains shown)
VH: EVQLVQSGAEVKKPGESLRISCKTSGFTFTRFWMNWVRQMPGKGLEWIGRIDPYDSETQYNHKFWDHATLSVDKSSSTVYLQWSSLKASDTAMYYCGRSLYGKGDYWGQGTTVTVSS
VL: B1 VL
modifications: IgG1 FES constant regions
B5: Hu1B5-H2.1/Hu1B5-L1: humanized anti-A2aR IgG1 FES antibody; HCVR SEQ ID NO:53, LCVR SEQ ID NO:71 (antibody, V domains shown)
VH: B1 VH with A68V, L70M, S76T
VL: B1 VL
B6: Hu1B5-H1/Hu1B5-L2: humanized anti-A2aR IgG1 FES antibody; HCVR SEQ ID NO:51, LCVR SEQ ID NO:72 (antibody, V domains shown)
VH: B1 VH with E1Q, T24A, I48M, A68V, L70M, V72R, S76T
VL: B1 VL with F41Y
B7: Hu1B5-H5/Hu1B5-L1: humanized anti-A2aR IgG1 FES antibody; HCVR SEQ ID NO:56, LCVR SEQ ID NO:71 (antibody, V domains shown)
VH: B1 VH with N61A, T74K
VL: B1 VL
modifications: IgG1 FES constant regions
B8: Hu3F8-H6/Hu3F8-L1: humanized anti-A2aR IgG1 FES antibody; HCVR SEQ ID NO:70, LCVR SEQ ID NO:84 (antibody, V domains shown)
VH: B4 VH with T24A, F32Y, Y54S, Q59H, D66G, G97L
VL: B1 VL with F94Y
B9: Hu3F6-H5/Hu3F6-L1: humanized anti-A2aR IgG1 FES antibody; HCVR SEQ ID NO:62, LCVR SEQ ID NO:76 (antibody, V domains shown)
VH: EVQLVQSGAEVKKPGASVKVSCKTSGFAFTSYWMNWVRQAPGQGLEWIGRIDPSDSEAHYAHKFWGRATLTVDKSSSTVYMELSSLRSEDTAVYYCLRSLYGKGDYWGHGTTVTVSS
VL: B1 VL with I29L, S32R, F94Y
B10: Hu3F6-H3/Hu3F6-L1: humanized anti-A2aR IgG1 FES antibody; HCVR SEQ ID NO:60, LCVR SEQ ID NO:76 (antibody, V domains shown)
VH: B9 VH with A61H, K74T
VL: B1 VL with I29L, S32R, F94Y
B11: Hu3F6-H3/Hu3F6-L2: humanized anti-A2aR IgG1 FES antibody; HCVR SEQ ID NO:60, LCVR SEQ ID NO:77 (antibody, V domains shown)
VH: B9 VH with A61H, K74T
VL: B1 VL with I29L, S32R, F41Y, F94Y
B12: Hu3F8-H3/Hu3F8-L2: humanized anti-A2aR IgG1 FES antibody; HCVR SEQ ID NO:66, LCVR SEQ ID NO:85 (antibody, V domains shown)
VH: B1 VH with T24A, F32Y, Y54S, Q59H, D66G, S76T, G97L
VL: B1 VL with F41Y, F94Y
B13: Hu3F6-H4/Hu3F6-L1: humanized anti-A2aR IgG1 FES antibody; HCVR SEQ ID NO:61, LCVR SEQ ID NO:76 (antibody, V domains shown)
VH: B9 VH with A61H
VL: B1 VL with I29L, S32R, F94Y
B14: Hu3F6-H2/Hu3F6-L2: humanized anti-A2aR IgG1 FES antibody; HCVR SEQ ID NO:59, LCVR SEQ ID NO:77 (antibody, V domains shown)
VH: B9 VH with I48M, A61H, A68V, L70M, K74T, S76T
VL: B1 VL with I29L, S32R, F41Y, F94Y
modifications: IgG1 FES constant regions
B15: Hu3F8-H5/Hu3F8-L1: humanized anti-A2aR IgG1 FES antibody; HCVR SEQ ID NO:68, LCVR SEQ ID NO:84 (antibody, V domains shown)
VH: B9 VH with T24A, A28T, S31R, A58T, A61N, H62A, S76T, H109Q
VL: B1 VL with F94Y
B16: Hu3F8-H5/Hu3F8-L2: humanized anti-A2aR IgG1 FES antibody; HCVR SEQ ID NO:68, LCVR SEQ ID NO:85 (antibody, V domains shown)
VH: B9 VH with T24A, A28T, S31R, A58T, A61N, H62A, S76T, H109Q
VL: B1 VL with F41Y, F94Y
B17: Hu3F8-H3/Hu3F8-L1: humanized anti-A2aR IgG1 FES antibody; HCVR SEQ ID NO:66, LCVR SEQ ID NO:84 (antibody, V domains shown)
VH: B1 VH with T24A, F32Y, Y54S, Q59H, D66G, S76T, G97L
VL: B1 VL with F94Y
B18: Hu3F8-H4/Hu3F8-L2: humanized anti-A2aR IgG1 FES antibody; HCVR SEQ ID NO:67, LCVR SEQ ID NO:85 (antibody, V domains shown)
VH: B9 VH with T24A, A28T, S31R, A58T, A61N, S76T, H109Q
VL: B1 VL with F41Y, F94Y
B19: Hu3F6-H5/Hu3F6-L2: humanized anti-A2aR IgG1 FES antibody; HCVR SEQ ID NO:62, LCVR SEQ ID NO:77 (antibody, V domains shown)
VH: B9 VH
VL: B1 VL with I29L, S32R, F41Y, F94Y
B20: Hu3F8-H4/Hu3F8-L1: humanized anti-A2aR IgG1 FES antibody; HCVR SEQ ID NO:67, LCVR SEQ ID NO:84 (antibody, V domains shown)
VH: B9 VH with T24A, A28T, S31R, A58T, A61N, S76T, H109Q
VL: B1 VL with F94Y
B21: Hu3F8-H2/Hu3F8-L2: humanized anti-A2aR IgG1 FES antibody; HCVR SEQ ID NO:65, LCVR SEQ ID NO:85 (antibody, V domains shown)
VH: B1 VH with T24A, F32Y, I48M, Y54S, Q59H, D66G, A68V, L70M, S76T, G97L
VL: B1 VL with F41Y, F94Y

molecular target: human A2aR (Homo sapiens, UniProt P29274); assay: Binding of humanized anti-A2aR antibodies in transfected Expi293F cell supernatant to human A2aR on HEK293 cells (FACS, MFI); conditions: supernatant normalized to 1 μg/ml antibody; HEK293 cells stably overexpressing human A2aR; greater MFI = stronger binding; parental value average of triplicate
Sequence (P29274 whole entry): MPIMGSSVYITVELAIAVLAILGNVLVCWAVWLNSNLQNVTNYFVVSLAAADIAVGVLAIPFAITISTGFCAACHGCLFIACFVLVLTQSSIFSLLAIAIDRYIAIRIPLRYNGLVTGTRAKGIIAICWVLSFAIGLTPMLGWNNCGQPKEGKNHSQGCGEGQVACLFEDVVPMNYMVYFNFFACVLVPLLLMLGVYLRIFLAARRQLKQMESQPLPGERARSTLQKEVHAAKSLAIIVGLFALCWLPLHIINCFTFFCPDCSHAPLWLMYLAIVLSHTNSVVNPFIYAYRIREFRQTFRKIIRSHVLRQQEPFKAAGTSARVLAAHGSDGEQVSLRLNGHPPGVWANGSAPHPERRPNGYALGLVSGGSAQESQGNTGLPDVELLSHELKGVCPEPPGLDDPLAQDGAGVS
Protocol: Briefly, HEK293 cells that stably overexpress human A2aR (HEK-hA2aR OCL, BPS Bioscience, Cat. 79381) were collected from fresh culture. Cells were then resuspended in FACS buffer (1×DPBS/1% FBS) at 10^6/ml concentration. One hundred microliters (100 μl) of cells were aliquoted into each well of a 96 well plates. After centrifugation, cell pellets in each well were then resuspended with 100 μl normalized supernatant samples containing 1 μg/ml humanized anti-A2aR monoclonal antibody variants collected from transfected Expi293 cell culture. The supernatants were mixed with the cells and incubated on ice for 1 hours. After washing the mixtures of the supernatants containing expressed antibodies and the A2aR-expressing cells with FACS buffer, one hundred microliters (100 μl) of 1:400 diluted PE-conjugated anti-human Fc secondary antibody (Jackson Immuno Research, Cat. 109-116-098) was added to each well followed by an incubation for 30 minutes on ice. After washes with FACS buffer, stained cells were resuspended in 150 μl of 7-AAD (Biolegend, Cat. 420404) diluted 1:100 in 1×DPBS buffer and incubate for 5 minutes in the dark at room temperature before FACS analysis. The mean fluorescence intensity (MFI) was obtained using Guava 11HT or 5HT (Luminex). Data was analyzed using Flowjo software.
As shown in Tables 22-24, exemplary humanized anti-A2aR antibodies bind to A2aR expressed on a cell surface. A greater MFI value means stronger binding of the exemplary antibody to A2aR expressed on a cell surface.

| Molecule | binding to human A2aR on cell surface, mean fluorescence intensity (MFI) |
| --- | --- |
| B1 | 152 |
| B2 | 182 |
| B3 | 165 |
| B4 | 178 |
| B5 | 145 |
| B6 | 62 |
| B7 | 82 |

same assay, conditions: supernatant with 1 μg/ml antibody; HEK293 overexpressing human A2aR; heavy chain (row) x light chain

| Molecule | MFI, binding to human A2aR on cell surface (3F8-12E9 derived) | MFI, binding to human A2aR on cell surface (3F6-9G5 derived) |
| --- | --- | --- |
| B8 | 158 | – |
| B9 | – | 25 |
| B10 | – | 12 |
| B11 | – | 200 |
| B12 | 93 | – |
| B13 | – | 21 |
| B14 | – | 146 |
| B15 | 58 | – |
| B16 | 147 | – |
| B17 | 64 | – |
| B18 | 131 | – |
| B19 | – | 191 |
| B20 | 110 | – |
| B21 | 38 | – |

Reference: patent US20250206828A1, “ANTI-ADENOSINE RECEPTOR (A2aR) ANTIBODIES AND THE USE THEREOF” (Adept Therapeutics Inc., priority 2022, published 2025)
